Tests used:
Assay in all cases: cell_activity; U937 RT-PCR; also edits KRAS in HEK293
[1] = target: pb76 DLRRR (7-zinc finger array + triple R element) (artificial)
Excerpt: (§1) As described above, each plasmid, pb74, pb75, and pb76 was introduced into U937 cells by electroporation. A “no DNA” transfection was used as control. […] post electroporation, cells transfected with these plasmids were detached and collected. Total RNAs from each condition were then extracted by using Trizol reagent. Five hundred nanograms of total RNA was then converted into DNA by reverse transcription (RT) reaction, followed by PCR using a primer set of Pop133 (SEQ ID. NO. 228) and Pop134 (SEQ ID. NO. 229). Three independent experiments were conducted. KRAS mRNA expression was quantitated by calculations of amplification band intensity of RT-PCR KRAS normalized by corresponding that of Ref-BMG using Bio-Rad Imagelab software. Introduction of pb74 (DLR), ob75 (DLRR), and pb76 (DLRRR) inhibit KRAS gene expression more than 50%.

[2] = target: pb75 DLRR (7-zinc finger array + double R element) (artificial)
Excerpt: as §1

[3] = target: pb74 DLR (7-zinc finger array + single R element) (artificial)
Excerpt: as §1

Measured: activity

pb74 DLR (7-zinc finger array + single R element) (artificial), sequence (chain, as listed by the source): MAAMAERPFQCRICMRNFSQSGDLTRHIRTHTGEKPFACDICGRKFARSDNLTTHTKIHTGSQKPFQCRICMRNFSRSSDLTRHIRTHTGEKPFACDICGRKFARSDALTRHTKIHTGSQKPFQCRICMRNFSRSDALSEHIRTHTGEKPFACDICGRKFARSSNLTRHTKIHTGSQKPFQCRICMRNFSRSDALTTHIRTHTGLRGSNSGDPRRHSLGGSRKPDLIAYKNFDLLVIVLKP
pb76 DLRRR (7-zinc finger array + triple R element) (artificial), sequence (chain, as listed by the source): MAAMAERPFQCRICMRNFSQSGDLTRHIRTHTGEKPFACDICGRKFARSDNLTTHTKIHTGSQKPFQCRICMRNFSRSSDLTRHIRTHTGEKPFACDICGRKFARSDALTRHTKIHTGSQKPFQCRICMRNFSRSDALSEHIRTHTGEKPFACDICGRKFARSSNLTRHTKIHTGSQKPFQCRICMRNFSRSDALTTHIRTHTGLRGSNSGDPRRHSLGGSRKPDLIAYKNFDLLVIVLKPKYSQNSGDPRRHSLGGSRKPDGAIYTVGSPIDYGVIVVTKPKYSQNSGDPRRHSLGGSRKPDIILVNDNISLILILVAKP
pb75 DLRR (7-zinc finger array + double R element) (artificial), sequence (chain, as listed by the source): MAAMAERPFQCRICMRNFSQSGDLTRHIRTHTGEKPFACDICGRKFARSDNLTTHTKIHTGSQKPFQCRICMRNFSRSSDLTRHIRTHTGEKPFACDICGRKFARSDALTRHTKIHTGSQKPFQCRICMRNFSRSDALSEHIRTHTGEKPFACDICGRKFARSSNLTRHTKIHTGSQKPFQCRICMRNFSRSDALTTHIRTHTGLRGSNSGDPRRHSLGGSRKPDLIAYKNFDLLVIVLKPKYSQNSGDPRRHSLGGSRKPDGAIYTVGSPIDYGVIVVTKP

B1: KRAS exon 1 site (dsDNA)
DNA 1: TTGGAGCTGGTGGCGTAGGCA
DNA 2: TGCCTACGCCACCAGCTCCAA
> 50 % inhibition of KRAS mRNA: all assays above
